Target: T1, bacteriophage MS2 coat protein (bacteriophage MS2), P03612
T1 chain: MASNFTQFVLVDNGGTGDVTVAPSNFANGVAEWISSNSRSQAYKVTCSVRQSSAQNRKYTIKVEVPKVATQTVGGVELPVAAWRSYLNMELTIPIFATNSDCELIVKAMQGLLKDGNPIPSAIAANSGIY
Assay: cryo-EM structure; single particle cryo-EM of purified MS2 virions (coat protein, A-protein and RNA genome); icosahedral reconstruction at 4.1 Å and asymmetric reconstruction at 8.7 Å
Details: remark: other sources report otherwise

B1: bacteriophage MS2 coat protein, P03612 1-130 (natural protein)
chain: MASNFTQFVLVDNGGTGDVTVAPSNFANGVAEWISSNSRSQAYKVTCSVRQSSAQNRKYTIKVEVPKVATQTVGGVELPVAAWRSYLNMELTIPIFATNSDCELIVKAMQGLLKDGNPIPSAIAANSGIY
stoichiometry N: 178 copies

— publication PMC5007439
